Measured values taken from patent publication US20240254229A1 (Molecular Partners, published 2024).

T1: biotinylated extracellular domain of human CD123 (SEQ ID NO: 88), Fc and Avi tagged (human, UniProt P26951 19-303, biotinylated with BirA-GST (Avi tag))
T1 construct: also called hCD123
T1 sequence: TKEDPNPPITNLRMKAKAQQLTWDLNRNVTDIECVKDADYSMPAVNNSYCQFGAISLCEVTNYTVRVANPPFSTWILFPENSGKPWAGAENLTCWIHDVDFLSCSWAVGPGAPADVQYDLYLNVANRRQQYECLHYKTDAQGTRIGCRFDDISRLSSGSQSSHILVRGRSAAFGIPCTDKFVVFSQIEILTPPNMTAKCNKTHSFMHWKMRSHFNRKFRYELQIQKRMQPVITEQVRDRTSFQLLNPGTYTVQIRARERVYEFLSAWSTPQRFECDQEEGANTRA

T2: extracellular domain of human CD70 (SEQ ID NO: 89), hCD70-Fc-trimer, ACRO Biosystems (human, UniProt P32970 52-193, chemically biotinylated where the biotinylated form was used)
T2 construct: also called human CD70-Fc-trimer; Bio.CD70
T2 sequence: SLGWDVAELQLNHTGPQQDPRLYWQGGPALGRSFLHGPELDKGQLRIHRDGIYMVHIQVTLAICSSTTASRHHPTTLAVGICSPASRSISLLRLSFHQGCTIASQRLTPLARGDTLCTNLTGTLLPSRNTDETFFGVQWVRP


Tests used:
[1] = molecular target: T1, biotinylated extracellular domain of …; test: SPR (ProteOn XPR36), target on GLC chip, DARPin as analyte
From the text: (§1) For that, DARPin® protein #27, DARPin® protein #29, DARPin® protein #47 and DARPin® protein #48 and DARPin® protein #49, DARPin® protein #50, DARPin® protein #51, DARPin® protein #52, DARPin® protein #31, DARPin® protein #53, DARPin® protein #54, DARPin® protein #55, DARPin® protein #34, DARPin® protein #33, DARPin® protein #39 and DARPin® protein #36 were subcloned and expressed as described above into derivatives of the pQE30 (Qiagen) expression vector, containing an N-terminal His-tag, CD33, CD123 and/or CD70 binding ankyrin repeat domains, followed by a CD3 specific ankyrin repeat domain and for some constructs by a human serum albumin specific ankyrin repeat domain.
(§2) Briefly, biotinylated human CD70, CD123 and CD33 was diluted in PBST (PBS, pH 7.4 containing 0.005% Tween 20®) and coated on a GLC chip (BioRad) to a level of around 200, 460 and 450 resonance units (RU) respectively. HSA in NaOAc pH 5.0 was directly immobilized on the GLC chip to a level of 800 RU. Bio.CD70, bio. CD33 and bio. CD123 required to have Neutravidin coated first to a level of 6000 RU before the biotinylated targets could be applied. The interaction of the selected ankyrin repeat proteins and human CD70, CD123 and CD33 was then measured by injecting 300 μl running buffer (PBS, pH 7.4 containing 0.005% Tween 20®) containing serial dilutions of ankyrin repeat proteins covering a concentration range between 100 nM and 2.6 nM (100, 40, 16, 6.4 and 2.6 nM respectively) for multi-trace SPR measurements, with an association of 120 s and dissociation of 1200 s using a constant flow of 100 μl/min. The regeneration was performed using 30 μl of 4 mM Glycine pH 2. The signals (i.e. resonance unit (RU) values) of the interspots and a reference injection (i.e. injection of running buffer only) were subtracted from the RU traces obtained after injection of ankyrin repeat protein (double-referencing).

[2] = molecular target: T3, biotinylated extracellular domain of human CD33 (SEQ ID NO: 87), Fc and Avi tagged (human, UniProt P20138 18-259, biotinylated with BirA-GST (Avi tag)); test: as above
T3 construct: also called hCD33; human target hCD33
T3 sequence (P20138 18-259 R69G): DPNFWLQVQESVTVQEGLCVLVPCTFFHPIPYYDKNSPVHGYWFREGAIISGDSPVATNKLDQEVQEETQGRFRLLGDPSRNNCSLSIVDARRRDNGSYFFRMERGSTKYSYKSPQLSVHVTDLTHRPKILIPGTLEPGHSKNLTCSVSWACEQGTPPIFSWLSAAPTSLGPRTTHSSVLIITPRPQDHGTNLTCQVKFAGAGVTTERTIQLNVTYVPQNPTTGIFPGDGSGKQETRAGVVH
From the text: as §1, §2

[3] = molecular target: T4, human serum albumin (human, UniProt P02768 25-609); test: as above
T4 construct: also called HSA; SA
T4 sequence (P02768 25-609 limits assumed): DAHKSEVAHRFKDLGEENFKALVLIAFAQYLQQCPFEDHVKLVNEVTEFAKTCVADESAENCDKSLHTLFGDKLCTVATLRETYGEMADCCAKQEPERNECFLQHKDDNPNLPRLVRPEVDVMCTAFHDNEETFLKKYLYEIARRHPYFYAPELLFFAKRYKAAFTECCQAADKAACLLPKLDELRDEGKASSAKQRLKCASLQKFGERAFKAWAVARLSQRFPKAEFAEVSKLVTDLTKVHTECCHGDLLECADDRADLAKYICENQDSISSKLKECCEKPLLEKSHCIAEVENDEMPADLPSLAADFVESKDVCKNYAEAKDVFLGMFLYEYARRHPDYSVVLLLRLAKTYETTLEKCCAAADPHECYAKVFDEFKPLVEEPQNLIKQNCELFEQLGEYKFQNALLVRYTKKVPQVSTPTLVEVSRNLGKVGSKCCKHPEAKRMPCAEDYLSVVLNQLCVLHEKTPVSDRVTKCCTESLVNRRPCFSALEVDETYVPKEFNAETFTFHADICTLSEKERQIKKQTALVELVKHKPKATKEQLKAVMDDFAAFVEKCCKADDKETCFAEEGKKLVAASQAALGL
From the text: as §1, §2

[4] = molecular target: T2, extracellular domain of human CD70 (SEQ …); test: SPR (ProteOn XPR36), target on GLC chip
From the text: as §1, §2

[5] = molecular target: T2, extracellular domain of human CD70 (SEQ …); test: SPR (ProteOn XPR36), target on GLC chip, DARPin as analyte
From the text: as §1, §2

[6] = molecular target: T1, biotinylated extracellular domain of …; test: SPR (ProteOn XPR36), target on GLC chip
From the text: as §1, §2

[7] = molecular target: T4, human serum albumin; test: SPR (ProteOn XPR36), target on GLC chip
From the text: as §1, §2

Row | Binder | Kd [1] [nM] | Kd [2] [nM] | Kd [3] [nM] | binding result [4] | Kd [5] [nM] | binding result [6] | binding result [7]
1 | DARPin® protein #49 (designed binder, CD123-CD33-CD3-HSA; not shown: N-terminal His-tag) DLGKKLLEAALEGQLDEVRELLKAGADVNAKDQEGYTPLHLAAALGHLEIVEVLLKAGADVNAKDSIGRTPLHLAAYKGHLEIVEVLLKAGADVNAQDLLGETPADLAAEQGHQDIAEVLQKAAGSPTPTPTTPTPTPTTPTPTPTGSDLGVKLLLAASRGQLDEVRILLKAGADVNAKDIDEGYTPLHIAAYYGHLEIVEVLLKAGADVNAKDRYGKTPLHLAAISGHLEIVEVLLKAGADVNAQDDKGDTPADLAADYGHQDIAEVLQKAAGSPTPTPTTPTPTPTTPTPTPTGSDLGQKLLEAAWAGQDDEVRELLKAGADVNAKNSRGWTPLHTAAQTGHLEIFEVLLKAGADVNAKDDKGVTPLHLAAALGHLEIVEVLLKAGADVNAQDSWGTTPADLAAKYGHEDIAEVLQKAAGSPTPTPTTPTPTPTTPTPTPTGSDLGKKLLEAARAGQDDEVRELLKAGADVNAKDYFSHTPLHLAARNGHLKIVEVLLKAGADVNAKDFAGKTPLHLAAADGHLEIVEVLLKAGADVNAQDIFGKTPADIAADAGHEDIAEVLQKAA | 23 | 6.8 | 14 | no binding (tested: 100 nM (highest concentration)) | – | – | –
2 | DARPin® protein #52 (designed binder, not shown: N-terminal His-tag) DLGYKLLQAAYDGQLDEVRILLKAGADVNAKDSRGQTPLHYAASIGHLEIVEVLLKAGADVNAKDDHGWTPLHLAAWSGHLEIVEVLLKAGADVNAQDQEGTTPADLAAVQGHQDIAEVLQKAAGSPTPTPTTPTPTPTTPTPTPTGSDLGVKLLLAASRGQLDEVRILLKAGADVNAKDIDEGYTPLHIAAYYGHLEIVEVLLKAGADVNAKDRYGKTPLHLAAISGHLEIVEVLLKAGADVNAQDDKGDTPADLAADYGHQDIAEVLQKAAGSPTPTPTTPTPTPTTPTPTPTGSDLGQKLLEAAWAGQDDEVRELLKAGADVNAKNSRGWTPLHTAAQTGHLEIFEVLLKAGADVNAKDDKGVTPLHLAAALGHLEIVEVLLKAGADVNAQDSWGTTPADLAAKYGHEDIAEVLQKAAGSPTPTPTTPTPTPTTPTPTPTGSDLGKKLLEAARAGQDDEVRELLKAGADVNAKDYFSHTPLHLAARNGHLKIVEVLLKAGADVNAKDFAGKTPLHLAAADGHLEIVEVLLKAGADVNAQDIFGKTPADIAADAGHEDIAEVLQKAA | – | 5.7 | 48 | – | 0.27 | no binding (tested: 100 nM (highest concentration)) | –
3 | DARPin® protein #36 (designed binder, CD33-specific ankyrin repeat domain; not shown: N-terminal His-tag) DLGVKLLLAASRGQLDEVRILLKAGADVNAKDIDEGYTPLHIAAYYGHLEIVEVLLKAGADVNAKDRYGKTPLHLAAISGHLEIVEVLLKAGADVNAQDDKGDTPADLAADYGHQDIAEVLQKAA | – | 6.7 | – | no binding (tested: 100 nM (highest concentration)) | – | no binding (tested: 100 nM (highest concentration)) | no binding (tested: 100 nM (highest concentration))
4 | DARPin® protein #47 (designed binder, HSA-CD123-CD33-CD3; not shown: N-terminal His-tag) DLGKKLLEAARAGQDDEVRELLKAGADVNAKDYFSHTPLHLAARNGHLKIVEVLLKAGADVNAKDFAGKTPLHLAAADGHLEIVEVLLKAGADVNAQDIFGKTPADIAADAGHEDIAEVLQKAAGSPTPTPTTPTPTPTTPTPTPTGSDLGKKLLEAALEGQLDEVRELLKAGADVNAKDQEGYTPLHLAAALGHLEIVEVLLKAGADVNAKDSIGRTPLHLAAYKGHLEIVEVLLKAGADVNAQDLLGETPADLAAEQGHQDIAEVLQKAAGSPTPTPTTPTPTPTTPTPTPTGSDLGVKLLLAASRGQLDEVRILLKAGADVNAKDIDEGYTPLHIAAYYGHLEIVEVLLKAGADVNAKDRYGKTPLHLAAISGHLEIVEVLLKAGADVNAQDDKGDTPADLAADYGHQDIAEVLQKAAGSPTPTPTTPTPTPTTPTPTPTGSDLGQKLLEAAWAGQDDEVRELLKAGADVNAKNSRGWTPLHTAAQTGHLEIFEVLLKAGADVNAKDDKGVTPLHLAAALGHLEIVEVLLKAGADVNAQDSWGTTPADLAAKYGHEDIAEVLQKAA | 8 | 5.4 | 15 | no binding (tested: 100 nM (highest concentration)) | – | – | –
5 | DARPin® protein #39 (designed binder, CD33-specific ankyrin repeat domain; not shown: N-terminal His-tag) DLGVKLLRAAVHGQLDEVRILLKAGADVNAKDTDGETPLHYAAQFGHLEIVEVLLKAGADVNAKDAYGATPLHWAAWHGHLEIVEVLLKAGADVNAQDVSGATPADLAAKVGHQDIAEVLQKAA | – | 24 | – | no binding (tested: 100 nM (highest concentration)) | – | no binding (tested: 100 nM (highest concentration)) | no binding (tested: 100 nM (highest concentration))
6 | DARPin® protein #31 (designed binder, CD70-CD123-CD33-CD3; not shown: N-terminal His-tag) DLGYKLLQAAYDGQLDEVRILLKAGADVNAKDSRGQTPLHYAASIGHLEIVEVLLKAGADVNAKDDHGWTPLHLAAWSGHLEIVEVLLKAGADVNAQDQEGTTPADLAAVQGHQDIAEVLQKAAGSPTPTPTTPTPTPTTPTPTPTGSDLGKKLLEAALEGQLDEVRELLKAGADVNAKDQEGYTPLHLAAALGHLEIVEVLLKAGADVNAKDSIGRTPLHLAAYKGHLEIVEVLLKAGADVNAQDLLGETPADLAAEQGHQDIAEVLQKAAGSPTPTPTTPTPTPTTPTPTPTGSDLGVKLLRAAVHGQLDEVRILLKAGADVNAKDTDGETPLHYAAQFGHLEIVEVLLKAGADVNAKDAYGATPLHWAAWHGHLEIVEVLLKAGADVNAQDVSGATPADLAAKVGHQDIAEVLQKAAGSPTPTPTTPTPTPTTPTPTPTGSDLGQKLLEAAWAGQDDEVRELLKAGADVNAKNSRGWTPLHTAAQTGHLEIFEVLLKAGADVNAKDDKGVTPLHLAAALGHLEIVEVLLKAGADVNAQDSWGTTPADLAAKYGHEDIAEVLQKAA | 10 | 11 | – | – | 0.31 | – | no binding (tested: 100 nM (highest concentration))
7 | DARPin® protein #48 (designed binder, HSA-HSA-CD123-CD33-CD3; not shown: N-terminal His-tag) DLGKKLLEAARAGQDDEVRELLKAGADVNAKDYFSHTPLHLAARNGHLKIVEVLLKAGADVNAKDFAGKTPLHLAAADGHLEIVEVLLKAGADVNAQDIFGKTPADIAADAGHEDIAEVLQKAAGSPTPTPTTPTPTPTTPTPTPTGSDLGKKLLEAARAGQDDEVRELLKAGADVNAKDYFSHTPLHLAARNGHLKIVEVLLKAGADVNAKDFAGKTPLHLAAADGHLEIVEVLLKAGADVNAQDIFGKTPADIAADAGHEDIAEVLQKAAGSPTPTPTTPTPTPTTPTPTPTGSDLGKKLLEAALEGQLDEVRELLKAGADVNAKDQEGYTPLHLAAALGHLEIVEVLLKAGADVNAKDSIGRTPLHLAAYKGHLEIVEVLLKAGADVNAQDLLGETPADLAAEQGHQDIAEVLQKAAGSPTPTPTTPTPTPTTPTPTPTGSDLGVKLLLAASRGQLDEVRILLKAGADVNAKDIDEGYTPLHIAAYYGHLEIVEVLLKAGADVNAKDRYGKTPLHLAAISGHLEIVEVLLKAGADVNAQDDKGDTPADLAADYGHQDIAEVLQKAAGSPTPTPTTPTPTPTTPTPTPTGSDLGQKLLEAAWAGQDDEVRELLKAGADVNAKNSRGWTPLHTAAQTGHLEIFEVLLKAGADVNAKDDKGVTPLHLAAALGHLEIVEVLLKAGADVNAQDSWGTTPADLAAKYGHEDIAEVLQKAA | 5.1 | 4.2 | 1.1 | no binding (tested: 100 nM (highest concentration)) | – | – | –
